Reference: patent US20250163127A1

How the values were obtained:
human PD-1 (human) [1] = molecular target: human PD-1 (human) (UniProt Q15116); assay: flow cytometry, Jurkat/PD-1 cells, 50 nM
human PD-1 (human) [2] = molecular target: human PD-1 (human) (UniProt Q15116)
CD80 (human) = assay: flow cytometry, cells expressing CD80, 20 nM
human PD-1 (human) [3] = molecular target: human PD-1 (human) (UniProt Q15116); assay: flow cytometry, cells expressing PD-1, 20 nM
PD-1-Fc (human) = PD-1-Fc (human) (UniProt Q15116); assay: ForteBio Octet, PD-1 on anti-human capture sensor, 100 nM
Chain of PD-1-Fc (human) (Q15116 25-167 limits assumed): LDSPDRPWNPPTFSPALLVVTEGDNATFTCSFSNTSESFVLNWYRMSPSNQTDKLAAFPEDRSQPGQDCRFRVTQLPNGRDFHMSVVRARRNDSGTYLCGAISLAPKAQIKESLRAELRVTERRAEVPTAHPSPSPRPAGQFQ

PD-L1 (human) = assay: flow cytometry on HEK293 cells transfected with PD-L1
Chain of PD-L1 (human) (chain, as listed by the source): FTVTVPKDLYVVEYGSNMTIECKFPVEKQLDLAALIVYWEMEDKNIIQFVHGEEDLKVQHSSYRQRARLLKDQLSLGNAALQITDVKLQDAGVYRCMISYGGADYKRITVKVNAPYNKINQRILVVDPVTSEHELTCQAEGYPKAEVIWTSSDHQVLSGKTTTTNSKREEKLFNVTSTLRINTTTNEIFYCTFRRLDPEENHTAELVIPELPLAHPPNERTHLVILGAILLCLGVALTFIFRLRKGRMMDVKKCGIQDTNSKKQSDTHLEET

human PD-1 (human) [4] = molecular target: human PD-1 (human) (UniProt Q15116); assay: flow cytometry, Jurkat/PD-1 cells
[5] = molecular target: CD28, full-length, expressed on transfected cells (Homo sapiens (Human)) (UniProt P10747); assay: flow cytometry, cells expressing target
[6] = substrate: ICOS as used in the OD read-out of Table E15A (Homo sapiens (Human)) (UniProt Q9Y6W8); assay: OD read-out, format not told

Chain of human PD-1 (human) (Q15116 25-288): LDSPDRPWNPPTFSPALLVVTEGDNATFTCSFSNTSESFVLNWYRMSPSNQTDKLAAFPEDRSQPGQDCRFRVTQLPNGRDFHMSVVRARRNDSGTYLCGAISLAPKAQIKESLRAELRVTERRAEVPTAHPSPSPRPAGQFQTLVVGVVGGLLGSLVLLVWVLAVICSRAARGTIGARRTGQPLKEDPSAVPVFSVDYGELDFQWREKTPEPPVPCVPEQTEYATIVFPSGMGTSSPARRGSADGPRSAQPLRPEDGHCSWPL
Chain of CD80 (human) (chain, as listed by the source): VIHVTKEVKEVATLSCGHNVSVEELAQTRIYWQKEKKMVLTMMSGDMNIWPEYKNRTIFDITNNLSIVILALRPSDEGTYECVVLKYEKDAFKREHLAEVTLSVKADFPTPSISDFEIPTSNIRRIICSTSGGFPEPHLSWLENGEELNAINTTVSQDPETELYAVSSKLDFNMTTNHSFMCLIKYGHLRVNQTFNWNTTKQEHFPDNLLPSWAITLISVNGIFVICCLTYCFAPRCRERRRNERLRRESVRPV

| IFN gamma levels pg/mL (MLR) (human PD-1 (human) [2]) [pg/mL] | MFI [5] [MFI] | parental ratio [5] | OD [6] [OD] | parental ratio [6] | Binder | other results |
| --- | --- | --- | --- | --- | --- | --- |
| 1170 |  |  |  |  | Full length ECD of PD-L2, Fc fusion (Fc fusion) LFTVTVPKELYIIEHGSNVTLECNFDTGSHVNLGAITASLQKVENDTSPHRERATLLEEQLPLGKASFHIPQVQVRDEGQYQCIIIYGVAWDYKYLTLKVKASYRKINTHILKVPETDEVELTCQATGYPLAEVSWPNVSVPANTSHSRTPEGLYQVTSVLRLKPPPGRNFSCVFWNTHVRELTLASIDLQSQMEPRTHPT | MFI at 50 nM (human PD-1 (human) [1]): 2140 MFI |
| 1090 |  |  |  |  | variant PD-L2 IgV H15Q/N24S/T47A/Q72H/R76G/V89D Fc fusion (Fc fusion) LFTVTVPKELYIIEQGSNVTLECSFDTGSHVNLGAITASLQKVENDASPHRERATLLEEQLPLGKASFHIPHVQVGDEGQYQCIIIYGDAWDYKYLTLKVKA | Fortebio Response Units (Response Units) (PD-1-Fc (human)): 0.4 |
| 1640 |  |  |  |  | variant PD-L2 IgV H15Q/T47A Fc fusion (Fc fusion) LFTVTVPKELYIIEQGSNVTLECNFDTGSHVNLGAITASLQKVENDASPHRERATLLEEQLPLGKASFHIPQVQVRDEGQYQCIIIYGVAWDYKYLTLKVKA | Fortebio Response Units (Response Units) (PD-1-Fc (human)): 0.016 |
| 1750 |  |  |  |  | variant PD-L2 IgV I13V/H15Q/T37A/E44D/S48C/S67L/Q82R/V89D Fc fusion (Fc fusion) LFTVTVPKELYIVEQGSNVTLECNFDTGSHVNLGAIAASLQKVDNDTCPHRERATLLEEQLPLGKALFHIPQVQVRDEGQYRCIIIYGDAWDYKYLTLKVKA | Fortebio Response Units (Response Units) (PD-1-Fc (human)): 1.25 |
|  | 162 | 9 ratio to WT | 1.33 | 1.55 ratio to WT | ICOSL ECD-Fc N52S (Fc fusion) DTQEKEVRAMVGSDVELSCACPEGSRFDLNDVYVYWQTSESKTVVTYHIPQSSSLENVDSRYRNRALMSPAGMLRGDFSLRLFNVTPQDEQKFHCLVLSQSLGFQEVLSVEVTLHVAANFSVPVVSAPHSPSQDELTFTCTSINGYPRPNVYWINKTDNSLLDQALQNDTVFLNMRGLYDVVSVLRIARTPSVNIGCCIENVLLQQNLTVGSQTGNDIGERDKITENPVSTGEKNAAT |  |
|  | 39 | 2.17 ratio to WT | 1.33 | 1.55 ratio to WT | ICOSL ECD-Fc N52S/D158G (Fc fusion) DTQEKEVRAMVGSDVELSCACPEGSRFDLNDVYVYWQTSESKTVVTYHIPQSSSLENVDSRYRNRALMSPAGMLRGDFSLRLFNVTPQDEQKFHCLVLSQSLGFQEVLSVEVTLHVAANFSVPVVSAPHSPSQDELTFTCTSINGYPRPNVYWINKTGNSLLDQALQNDTVFLNMRGLYDVVSVLRIARTPSVNIGCCIENVLLQQNLTVGSQTGNDIGERDKITENPVSTGEKNAAT |  |
|  | 16 | 0.89 ratio to WT | 0.63 | 0.73 ratio to WT | ICOSL ECD-Fc F120S/Y152H/N201S (Fc fusion) DTQEKEVRAMVGSDVELSCACPEGSRFDLNDVYVYWQTSESKTVVTYHIPQNSSLENVDSRYRNRALMSPAGMLRGDFSLRLFNVTPQDEQKFHCLVLSQSLGFQEVLSVEVTLHVAANSSVPVVSAPHSPSQDELTFTCTSINGYPRPNVHWINKTDNSLLDQALQNDTVFLNMRGLYDVVSVLRIARTPSVNIGCCIESVLLQQNLTVGSQTGNDIGERDKITENPVSTGEKNAAT |  |
|  | 130 | 7.22 ratio to WT | 1.59 | 1.85 ratio to WT | ICOSL ECD-Fc N52D (Fc fusion) DTQEKEVRAMVGSDVELSCACPEGSRFDLNDVYVYWQTSESKTVVTYHIPQDSSLENVDSRYRNRALMSPAGMLRGDFSLRLFNVTPQDEQKFHCLVLSQSLGFQEVLSVEVTLHVAANFSVPVVSAPHSPSQDELTFTCTSINGYPRPNVYWINKTDNSLLDQALQNDTVFLNMRGLYDVVSVLRIARTPSVNIGCCIENVLLQQNLTVGSQTGNDIGERDKITENPVSTGEKNAAT |  |
|  | 39 | 2.17 ratio to WT | 1.26 | 1.47 ratio to WT | ICOSL ECD-Fc N52S/Y146C/Y152C (Fc fusion) DTQEKEVRAMVGSDVELSCACPEGSRFDLNDVYVYWQTSESKTVVTYHIPQSSSLENVDSRYRNRALMSPAGMLRGDFSLRLFNVTPQDEQKFHCLVLSQSLGFQEVLSVEVTLHVAANFSVPVVSAPHSPSQDELTFTCTSINGCPRPNVCWINKTDNSLLDQALQNDTVFLNMRGLYDVVSVLRIARTPSVNIGCCIENVLLQQNLTVGSQTGNDIGERDKITENPVSTGEKNAAT |  |

The remaining lines, values behind:

| Binder | IFN gamma levels pg/mL (MLR) (human PD-1 (human) [2]) [pg/mL] | MFI [5] [MFI] | parental ratio [5] | OD [6] [OD] | parental ratio [6] | other results |
| --- | --- | --- | --- | --- | --- | --- |
| variant PD-L1 K57R/S99G/R195G Fc fusion (Fc fusion) FTVTVPKDLYVVEYGSNMTIECKFPVEKQLDLAALIVYWEMEDKNIIQFVHGEEDLRVQHSSYRQRARLLKDQLSLGNAALQITDVKLQDAGVYRCMIGYGGADYKRITVKVNAPYNKINQRILVVDPVTSEHELTCQAEGYPKAEVIWTSSDHQVLSGKTTTTNSKREEKLFNVTSTLRINTTTNEIFYCTFRGLDPEENHTAELVIPELPLAHPPNER |  |  |  |  |  | MFI at 20 nM (CD80 (human)): 11000 MFI |
| variant PD-L1 I36T/I83T/M97L/K144E/P198T Fc fusion (Fc fusion) FTVTVPKDLYVVEYGSNMTIECKFPVEKQLDLAALTVYWEMEDKNIIQFVHGEEDLKVQHSSYRQRARLLKDQLSLGNAALQTTDVKLQDAGVYRCLISYGGADYKRITVKVNAPYNKINQRILVVDPVTSEHELTCQAEGYPEAEVIWTSSDHQVLSGKTTTTNSKREEKLFNVTSTLRINTTTNEIFYCTFRRLDTEENHTAELVIPELPLAHPPNER |  |  |  |  |  | MFI at 20 nM (human PD-1 (human) [3]): 62 MFI |
| variant PD-L1 I36T/M97L/Q155H/F193S/N201Y Fc fusion (Fc fusion) FTVTVPKDLYVVEYGSNMTIECKFPVEKQLDLAALTVYWEMEDKNIIQFVHGEEDLKVQHSSYRQRARLLKDQLSLGNAALQITDVKLQDAGVYRCLISYGGADYKRITVKVNAPYNKINQRILVVDPVTSEHELTCQAEGYPKAEVIWTSSDHHVLSGKTTTTNSKREEKLFNVTSTLRINTTTNEIFYCTSRRLDPEEYHTAELVIPELPLAHPPNER |  |  |  |  |  | MFI at 20 nM (CD80 (human)): 1250 MFI |
| variant PD-L1 Y10F/M18V/S99G/Q138R/T203A Fc fusion (Fc fusion) FTVTVPKDLFVVEYGSNVTIECKFPVEKQLDLAALIVYWEMEDKNIIQFVHGEEDLKVQHSSYRQRARLLKDQLSLGNAALQITDVKLQDAGVYRCMIGYGGADYKRITVKVNAPYNKINQRILVVDPVTSEHELTCRAEGYPKAEVIWTSSDHQVLSGKTTTTNSKREEKLFNVTSTLRINTTTNEIFYCTFRRLDPEENHAAELVIPELPLAHPPNER |  |  |  |  |  | MFI at 20 nM (human PD-1 (human) [3]): 70 MFI |
| variant PD-L1 N17D/M97L/S99G Fc fusion (Fc fusion) FTVTVPKDLYVVEYGSDMTIECKFPVEKQLDLAALIVYWEMEDKNIIQFVHGEEDLKVQHSSYRQRARLLKDQLSLGNAALQITDVKLQDAGVYRCLIGYGGADYKRITVKVNAPYNKINQRILVVDPVTSEHELTCQAEGYPKAEVIWTSSDHQVLSGKTTTTNSKREEKLFNVTSTLRINTTTNEIFYCTFRRLDPEENHTAELVIPELPLAHPPNER |  |  |  |  |  | MFI at 20 nM (human PD-1 (human) [3]): 10100 MFI |
| variant PD-L2 IgV H15Q/Q72H/V89D Fc fusion (Fc fusion) LFTVTVPKELYIIEQGSNVTLECNFDTGSHVNLGAITASLQKVENDTSPHRERATLLEEQLPLGKASFHIPHVQVRDEGQYQCIIIYGDAWDYKYLTLKVKA | 1270 |  |  |  |  | MFI at 50 nM (human PD-1 (human) [1]): 12600 MFI |
| variant PD-L2 IgV H15Q/V89D Fc fusion (Fc fusion) LFTVTVPKELYIIEQGSNVTLECNFDTGSHVNLGAITASLQKVENDTSPHRERATLLEEQLPLGKASFHIPQVQVRDEGQYQCIIIYGDAWDYKYLTLKVKA | 1500 |  |  |  |  | Fortebio Response Units (Response Units) (PD-1-Fc (human)): 0.31 |
| variant PD-L2 IgV I13V/H15Q/T47A/R76G/V89D Fc fusion (Fc fusion) LFTVTVPKELYIVEQGSNVTLECNFDTGSHVNLGAITASLQKVENDASPHRERATLLEEQLPLGKASFHIPQVQVGDEGQYQCIIIYGDAWDYKYLTLKVKA | 1250 |  |  |  |  | Fortebio Response Units (Response Units) (PD-1-Fc (human)): 1.6 |
| Variant CD80 E35G/K54E/A71D/L72P Fc fusion (Fc fusion) VIHVTKEVKEVATLSCGHNVSVEELAQTRIYWQKGKKMVLTMMSGDMNIWPEYENRTIFDITNNLSIVILDPRPSDEGTYECVVLKYEKDAFKREHLAEVT |  |  |  |  |  | MFI at 22.2 nM (PD-L1 (human)): 1580 MFI |
| PD-L1 IgV-Fc I20L/I36T/N45D/I47T (Fc fusion) FTVTVPKDLYVVEYGSNMTLECKFPVEKQLDLAALTVYWEMEDKDITQFVHGEEDLKVQHSSYRQRARLLKDQLSLGNAALQITDVKLQDAGVYRCMISYGGADYKRITVKVNA |  |  |  |  |  | Fold increase over wildtype PD-L1 IgV-Fc (human PD-1 (human) [4]): 0.6 fold; MFI at 50 nM (human PD-1 (human) [4]): 3120 |
| ICOSL ECD-Fc N52S/Y152H (Fc fusion) DTQEKEVRAMVGSDVELSCACPEGSRFDLNDVYVYWQTSESKTVVTYHIPQSSSLENVDSRYRNRALMSPAGMLRGDFSLRLFNVTPQDEQKFHCLVLSQSLGFQEVLSVEVTLHVAANFSVPVVSAPHSPSQDELTFTCTSINGYPRPNVHWINKTDNSLLDQALQNDTVFLNMRGLYDVVSVLRIARTPSVNIGCCIENVLLQQNLTVGSQTGNDIGERDKITENPVSTGEKNAAT |  | 68 | 3.78 ratio to WT | 0.85 | 0.99 ratio to WT |  |
